Measured values as given in patent publication US20170137520A1 (Merck Sharp & Dohme, published 2017).
Where a chain is given by its changes, count along the chain named. Names and notes keep the numbering of the source. One block for each binder: values may come before it.

Assays:
[1] = biological target: T1, human CTLA-4 expressed on cell surface (hCTLA4-overexpressing CHO-K1 cells) (human, UniProt P16410 36-223); test: competition flow cytometry (cFACS) on CHO-K1 hCTLA4 cells against a fixed concentration (EC30) of hCD86-hFc; bound ligand detected via its human IgG Fc; MedianFI (PE)
T1 construct: The construct expressed in the cells is not described further; also called huCTLA-4+ CHO-K cells; CTLA-4+ CHO-K1 cells
T1 sequence: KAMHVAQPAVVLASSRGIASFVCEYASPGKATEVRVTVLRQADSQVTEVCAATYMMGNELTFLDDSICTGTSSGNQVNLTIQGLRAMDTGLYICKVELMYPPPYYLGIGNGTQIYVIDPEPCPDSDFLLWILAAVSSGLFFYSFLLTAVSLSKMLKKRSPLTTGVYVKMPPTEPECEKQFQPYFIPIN
Excerpt: (§1) F023700906, a building block of F023700925, as well as F023701051, F023701054 and F023701061 blocked binding of human CTLA-4 to its ligands CD80 and CD86. Flow cytometry analysis of discovery batches of N73X variants (filled squares, filled triangles, filled triangles upside-down) of Nb F023700906 (filled circles) with fixed concentrations (EC30) of (A) hCD80-hFc or (B) hCD86-hFc on hCTLA4-overexpressing CHO-K1 cells. The ligands were detected via the human IgG Fc fusion protein. The flow cytometry data generated in this experiment are in FIG. 10 (A-B).

[2] = biological target: T1, human CTLA-4 expressed on cell surface …; test: competition flow cytometry (cFACS) on CHO-K1 hCTLA4 cells against a fixed concentration (EC30) of hCD80-hFc; bound ligand detected via its human IgG Fc; MedianFI (PE)
Excerpt: as §1

Human CTLA-4-Fc = biological target: T2, Human CTLA-4-Fc (human, UniProt P16410 37-162, limits assumed); test: kinetic binding analysis on CTLA4-hFc; method not stated
T2 construct: also called human CTLA4-hFc; CTLA-4-Fc fusion molecule from human; not shown: human Fc (hFc)
T2 sequence: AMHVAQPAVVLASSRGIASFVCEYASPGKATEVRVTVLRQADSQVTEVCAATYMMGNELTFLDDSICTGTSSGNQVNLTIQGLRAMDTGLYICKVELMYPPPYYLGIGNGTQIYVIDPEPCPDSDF
Protocol: (§2) On-rate, off-rate and affinity were determined using human and cynomolgus monkey CTLA4-hFc (Table below).

Cynomolgus CTLA-4-Fc = biological target: T3, Cynomolgus CTLA-4-Fc (cynomolgus monkey, UniProt G7PL88 37-162); test: as above
T3 construct: also called cynomolgus monkey CTLA4-hFc; not shown: human Fc (hFc)
T3 sequence: T2 sequence with S13N, I17T, L105M
Protocol: as §2

[3] = biological target: T1, human CTLA-4 expressed on cell surface …; test: competition flow cytometry (cFACS) on CHO-K1 hCTLA4 cells against a fixed concentration (EC30) of hCD86-hFc; MedianFI (PE)
[4] = biological target: T1, human CTLA-4 expressed on cell surface …; test: competition flow cytometry (cFACS) on CHO-K1 hCTLA4 cells against a fixed concentration (EC30) of hCD80-hFc; MedianFI (PE)

IC50 (read off the curve) [1]: ~2 nM
IC50 (read off the curve) [2]: ~10 nM
Kd (Human CTLA-4-Fc): 1.2 nM
koff (Human CTLA-4-Fc): 0.0059 s⁻¹
kon (Human CTLA-4-Fc): 4.8e+06 M⁻¹ s⁻¹
Kd (Cynomolgus CTLA-4-Fc): 1.2 nM
koff (Cynomolgus CTLA-4-Fc): 0.0057 s⁻¹
kon (Cynomolgus CTLA-4-Fc): 4.7e+06 M⁻¹ s⁻¹
IC50 (read off the curve) [3]: ~2 nM
IC50 (read off the curve) [4]: ~10 nM
B1: F023700906 Nanobody, CTLA4 binder 11F01 (L11V,A14P,Q45R,A74S,K83R,V89L,M96P,Q108L)-FLAG3-HIS6 (VHH)
VHH: EVQLVESGGGVVQPGGSLRLSCAASGGTFSFYGMGWFRQAPGKEREFVADIRTSAGRTYYADSVKGRFTISRDNSKNTVYLQMNSLRPEDTALYYCAAEPSGISGWDYWGQGTLVTVSS
notes: also called F02370906; Nb F023700906

IC50 (read off the curve) [1]: ~2 nM
IC50 (read off the curve) [2]: ~10 nM
IC50 (read off the curve) [3]: ~2 nM
IC50 (read off the curve) [4]: ~10 nM
B2: F023701054 [11F01 (L11V,A14P,Q45R,N73T,A74S,K83R,V89L,M96P,Q108L)-FLAG3-HIS6] (VHH, name in Kabat numbering)
VHH: B1 VHH with N74T
notes: N73 is Kabat numbering

IC50 (read off the curve) [1]: ~2 nM
IC50 (read off the curve) [2]: ~10 nM
IC50 (read off the curve) [3]: ~2 nM
IC50 (read off the curve) [4]: ~10 nM
B3: F023701051 [11F01 (L11V,A14P,Q45R,N73Q,A74S,K83R,V89L,M96P,Q108L)-FLAG3-HIS6] (VHH, name in Kabat numbering)
VHH: B1 VHH with N74Q
notes: N73 is Kabat numbering; also called F02371051

IC50 (read off the curve) [1]: ~2 nM
IC50 (read off the curve) [2]: ~10 nM
IC50 (read off the curve) [3]: ~2 nM
IC50 (read off the curve) [4]: ~10 nM
B4: F023701061 [11F01 (L11V,A14P,Q45R,N73Y,A74S,K83R,V89L,M96P,Q108L)-FLAG3-HIS6] (VHH, name in Kabat numbering)
VHH: B1 VHH with N74Y
notes: N73 is Kabat numbering
